Data set [1] deals with T1, CC(C)(COP(=O)(O)OP(=O)(O)OC[C@H]1O[C@@H](n2cnc3c(N)ncnc32)[C@H](O)[C@@H]1OP(=O)(O)O)[C@@H](O)C(=O)NCCC(=O)NCCSC(=O)CC(=O)O.
T1 construct: KS-AT didomain of PnD, recombinant, purified
The experiment in a line: SucC/SucD - pyruvate kinase/lactate dehydrogenase coupled assay of CoA release. It is filed as biochemical, Streptomyces platensis. As to conditions: hydrolysis.

Data set [2] shares this test system. Description: purified protein, by the assay type. More on the design: SucC/SucD-coupled CoA-SH release assay, NADH absorbance 340 nm, apparent KM for transacylation to ACP. As to conditions: pH 7.4; 30.0 °C. On the procedure: (§1) Acyltransferase steady state kinetic assay. The assay buffer (200 mM Tris, glycerol 5%v/v, 20 mM MgCl2, pH 7.4) was used to set up all other solutions for this assay. Four master mixes (MM1 to MM4) in 4x concentration were prepared. For MM1 containing the KS-AT proteins (KS-AT or KS-ATS->A mutants), the enzymes were adjusted to 2 µM (for transacylation) or to 4 µM (for hydrolysis) with assay buffer additionally containing 1 mM DTT and 0.1 mg/mL BSA. For MM2 highly pure and concentrated ACP were adjusted to 1600 µM concentration with the assay buffer. Substrate acyl-CoA containing MM3 was prepared with the assay buffer in varying substrate concentrations ranging from (4x concentration indicated here) 1 µM to 1 mM. MM4 contained 1.6 mM NADH, 20 mM ATP, 30 mM succinate, 10 mM phosphoenolpyruvate (stock solutions should be resuspended in assay buffer, or Tris 200 mM, pH 7.4). First, these compounds were mixed and assay buffer was added, leaving volume for Pyruvate Kinase/Lactic Dehydrogenase (PK/LDH), SucC and SucD. After mixing of the compounds, the enzymes were added to MM4 like following: 0.06 mM SucC, 0.06 mM SucD and 20% v/v of PK/LDH (Sigma-Aldrich) (40 µL PK/LDH for 200 µL MM4). To measure transacylation 25 µL MM3, 25 µL MM4, 25 µL MM2 were mixed and incubated 30 °C for one minute. The reaction was started using 25 µL MM1. To measure hydrolysis 25 µL MM3, 25 µL MM4, 25 µL assay buffer were mixed, incubated at 30 °C for one minute. The reaction was started with 25 µL MM1. In both cases after starting the reaction, the mixture was immediately transferred into a 1 cm quartz cuvette, preheated to 30 °C and the absorption was monitored at 340 nm with a Cary 60 UV vis (Agilent technologies). The reactions were measured in three to four technical replicates. Simultaneous to 16 Scheme S1: Steady state kinetic assay, relying on purified proteins. KS-AT didomains and standalone ACPs are used. Upon covalent binding of the acyl-residue to the AT, CoA-SH is released. With no ACP acceptor available, the acyl-residue is subsequently hydrolyzed by nucleophilic attack of water and the AT can bind a new acyl-residue. If holo-ACP is available, the acyl-residue is transferred and the AT can bind a new acyl-residue. Free CoA-SH is converted to succinyl-CoA by E. coli SucC/SucD. In this reaction ADP is produced, which can be used by pyruvate kinase/lactic dehydrogenase (PK/LDH) under NADH consumption. For Michaelis Menten plots with data collected with this assay refer to Figure S6. With the SucC/SucD‐based assay we determined kinetic parameters of PnB_KS‐AT1, PnB_KS‐AT2, PnC_KS‐AT and PnD_KS‐AT for hydrolysis and transacylation (Table S3, Figure S7). As negative control AT catalytic knockouts were used. […] These measurements were independently confirmed by mass spectrometric analysis of acylated ACPs, in which we exclusively detected malonyl‐ACP formation (Tables S1 and S4). […] K M between 4 μM to 11 μM. Rates for transacylation were between 10‐ to 35‐ fold higher (app. k cat of 28 min^−1–140 min^−1) at 2.5 to 7.7 fold higher catalytic efficiency (Table S3).

Data set [3] concerns T2, CC(C)(COP(=O)(O)OP(=O)(O)OC[C@H]1O[C@@H](n2cnc3c(N)ncnc32)[C@H](O)[C@@H]1OP(=O)(O)O)[C@@H](O)C(=O)NCCC(=O)NCCSC(=O)CC(=O)O.
T2 construct: KS-AT didomain of PnB first module (Pn PKS module 2), recombinant, purified
The experiment in a line: SucC/SucD - pyruvate kinase/lactate dehydrogenase coupled assay of CoA release. As to conditions: hydrolysis. The data set is classed as biochemical, Streptomyces platensis.

The test system is the same in data set [4]. The experiment in a line: purified protein, by the assay type. The note with it: pH 7.4; 30.0 °C. More on the design: SucC/SucD-coupled CoA-SH release assay, NADH absorbance 340 nm, apparent KM for transacylation to ACP. As to the method:
as §1

Data set [5] concerns T3, CC(C)(COP(=O)(O)OP(=O)(O)OC[C@H]1O[C@@H](n2cnc3c(N)ncnc32)[C@H](O)[C@@H]1OP(=O)(O)O)[C@@H](O)C(=O)NCCC(=O)NCCSC(=O)CC(=O)O.
T3 construct: ketosynthase-acyltransferase (KS-AT) didomain of PnC, recombinant, purified
Description: SucC/SucD - pyruvate kinase/lactate dehydrogenase coupled assay of CoA release. The data set is classed as biochemical, Streptomyces platensis. As to conditions: hydrolysis. An excerpt:
(§2) SucC/SucD - pyruvate kinase/lactate dehydrogenase coupled assay of CoA release on PnC_KS-AT

The subject of data set [6] is T4, CC(C)CC[C@@H](C(=O)O)C(=O)SCCNC(=O)CCNC(=O)[C@H](O)C(C)(C)COP(=O)(O)OP(=O)(O)OC[C@H]1O[C@@H](n2cnc3c(N)ncnc32)[C@H](O)[C@@H]1OP(=O)(O)O.
T4 construct: ketosynthase-acyltransferase (KS-AT) didomain of PnC, recombinant, purified
Described as above. As to conditions: hydrolysis. It is filed as biochemical, Streptomyces platensis.
Description: as §2

For data set [7], the system named is T5, CCCCCC[C@@H](C(=O)O)C(=O)SCCNC(=O)CCNC(=O)[C@H](O)C(C)(C)COP(=O)(O)OP(=O)(O)OC[C@H]1O[C@@H](n2cnc3c(N)ncnc32)[C@H](O)[C@@H]1OP(=O)(O)O.
T5 construct: ketosynthase-acyltransferase (KS-AT) didomain of PnC, recombinant, purified
The description is as above. The data set is classed as biochemical, Streptomyces platensis. The note with it: hydrolysis.
Description: as §2

Data set [8] deals with T6, CCCC[C@@H](C(=O)O)C(=O)SCCNC(=O)CCNC(=O)[C@H](O)C(C)(C)COP(=O)(O)OP(=O)(O)OC[C@H]1O[C@@H](n2cnc3c(N)ncnc32)[C@H](O)[C@@H]1OP(=O)(O)O.
T6 construct: ketosynthase-acyltransferase (KS-AT) didomain of PnC, recombinant, purified
The description is as above. The data set is classed as biochemical, Streptomyces platensis. The note with it: hydrolysis.
Description: as §2

The subject of data set [9] is T7, CC[C@@H](C(=O)O)C(=O)SCCNC(=O)CCNC(=O)[C@H](O)C(C)(C)COP(=O)(O)OP(=O)(O)OC[C@H]1O[C@@H](n2cnc3c(N)ncnc32)[C@H](O)[C@@H]1OP(=O)(O)O.
T7 construct: ketosynthase-acyltransferase (KS-AT) didomain of PnC, recombinant, purified
Described as above. It is filed as biochemical, Streptomyces platensis. As to conditions: hydrolysis.
Description: as §2

The test system of data set [10] is T8, C[C@@H](C(=O)O)C(=O)SCCNC(=O)CCNC(=O)[C@H](O)C(C)(C)COP(=O)(O)OP(=O)(O)OC[C@H]1O[C@@H](n2cnc3c(N)ncnc32)[C@H](O)[C@@H]1OP(=O)(O)O.
T8 construct: ketosynthase-acyltransferase (KS-AT) didomain of PnC, recombinant, purified
The data set is described as above. It is filed as biochemical, Streptomyces platensis. The note with it: hydrolysis.
Description: as §2

Data set [11] concerns T9, CC(C)(COP(=O)(O)OP(=O)(O)OC[C@H]1O[C@@H](n2cnc3c(N)ncnc32)[C@H](O)[C@@H]1OP(=O)(O)O)[C@@H](O)C(=O)NCCC(=O)NCCSC(=O)CC(=O)O.
T9 construct: KS-AT didomain of PnB second module (Pn PKS module 3), recombinant, purified
The data set is described as above. As to conditions: hydrolysis. The data set is classed as biochemical, Streptomyces platensis.

The test system is the same in data set [12]. Description: purified protein, by the assay type. As to conditions: pH 7.4; 30.0 °C. More on the design: SucC/SucD-coupled CoA-SH release assay, NADH absorbance 340 nm, apparent KM for transacylation to ACP. On the procedure: as §1

Among the data in paper PMC7496768, “Understanding Substrate Selectivity of Phoslactomycin Polyketide Synthase by Using Reconstituted in Vitro Systems” (Chembiochem, 2020) are Km, kcat and kcat/Km values, retold here.

For the substance PnD_KS-AT (Streptomyces platensis), the Km (as a rule, the substrate concentration at which the rate is half of its maximum) in data set [1] amounted to 11.5 ± 3.3 µM; in data set [2] it was 44 ± 7.2 µM. Besides, the kcat (as a rule, the number of substrate molecules converted per active site and unit of time at saturation) in data set [1] was 0.05 ± 0.0033 s⁻¹; in data set [2] it was 0.467 ± 0.03 s⁻¹.
As to PnB_KS-AT1 (Streptomyces platensis), in data set [3], the Km came out at 4.3 ± 0.8 µM and the kcat came to 0.067 ± 0.0025 s⁻¹. In data set [4], the Michaelis-Menten constant (Km) turned out to be 27 ± 2.6 µM; the kcat was 2.33 ± 0.0717 s⁻¹; the kcat/Km (in general, the turnover number divided by the Michaelis constant) is 86700 M⁻¹ s⁻¹.
PnC_KS-AT (Streptomyces platensis): the Km is 53 ± 41 µM in data set [5]; 20 ± 6.7 µM in data set [6]; 19 ± 15.5 µM in data set [7]; 6.2 ± 1.4 µM in data set [8]; 6 ± 1.8 µM in [9]; 73 ± 33 µM in data set [10]. The kcat in data set [5] came out at 0.01 ± 0.0025 s⁻¹; in data set [6], 0.0133 ± 0.00133 s⁻¹; in data set [7] it was 0.00667 ± 0.00133 s⁻¹; in data set [8] it was 0.0117 ± 0.000667 s⁻¹; in data set [9], 0.015 ± 0.001 s⁻¹; in data set [10], 0.0233 ± 0.005 s⁻¹. The kcat/Km stood at 167 M⁻¹ s⁻¹ in data set [5]; 667 M⁻¹ s⁻¹ in data set [6]; 333 M⁻¹ s⁻¹ in data set [7]; 1830 M⁻¹ s⁻¹ in data set [8]; 2500 M⁻¹ s⁻¹ in data set [9]; 333 M⁻¹ s⁻¹ in data set [10].
Take PnB_KS-AT2 (Streptomyces platensis): in [11], the Km was found to be 5.2 ± 0.8 µM and the kcat is 0.05 ± 0.00233 s⁻¹. Moreover, in [12], the Km came to 16 ± 1.7 µM and the kcat is 1.23 ± 0.0333 s⁻¹.
